T1: HVEM expressed on transfected 293 cells (Homo sapiens (Human), UniProt Q92956 39-283)
T1 construct: also called HVEM transfected cells; 293 cells expressing HVEM
T1 sequence: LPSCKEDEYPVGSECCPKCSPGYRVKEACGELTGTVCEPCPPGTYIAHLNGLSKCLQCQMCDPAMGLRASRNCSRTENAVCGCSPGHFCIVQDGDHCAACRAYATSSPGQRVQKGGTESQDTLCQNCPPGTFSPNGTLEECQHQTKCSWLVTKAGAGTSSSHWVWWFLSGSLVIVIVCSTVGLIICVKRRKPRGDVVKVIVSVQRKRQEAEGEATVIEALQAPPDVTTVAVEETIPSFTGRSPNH

T2: hICOS-Fc (human, UniProt Q9Y6W8 21-141, limits assumed)
T2 construct: Bought (R&D systems); not shown: Fc; not described
T2 sequence (looked up): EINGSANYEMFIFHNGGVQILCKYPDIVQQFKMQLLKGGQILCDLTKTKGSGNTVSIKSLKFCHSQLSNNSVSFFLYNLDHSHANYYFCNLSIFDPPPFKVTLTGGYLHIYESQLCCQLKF

T3: PRO87299(ECD)-Fc (human, UniProt Q7Z6A9 31-155, I-125 radiolabel in the cell binding assays (Table 7); residues not stated)
T3 construct: Extracellular domain (amino acids 1-155) ligated into a plasmid containing a human Fc domain; also called PRO87299-Fc; PRO87299(ECD)-Fc chimera; not shown: human Fc domain
T3 sequence: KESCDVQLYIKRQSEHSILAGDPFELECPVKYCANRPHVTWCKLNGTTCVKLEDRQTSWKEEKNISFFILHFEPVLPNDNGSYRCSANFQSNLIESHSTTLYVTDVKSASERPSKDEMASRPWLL

T4: hCTLA4-Fc (human, UniProt P16410 37-162, limits assumed)
T4 construct: Bought (R&D systems); not shown: Fc; not described
T4 sequence (looked up): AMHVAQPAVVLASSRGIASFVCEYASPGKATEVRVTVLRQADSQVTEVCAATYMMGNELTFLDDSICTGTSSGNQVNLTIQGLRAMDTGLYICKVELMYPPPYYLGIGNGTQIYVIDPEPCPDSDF

B1: LIGHT-FLAG (ligand)
chain: GEMVTRLPDGPAGSWEQLIQERRSHEVNPAAHLTGANSSLTGSGGPLLWETQLGLAFLRGLSYHDGALVVTKAGYYYIYSKVQLGGVGCPLGLASTITHGLYKRTPRYPEELELLVSQQSPCGRATSSSRVWWDSSFLGGVVHLEAGEEVVVRVLDERLVRLRDGTRSYFGAFMV
modifications: I-125 radiolabel; residues not stated
notes: also called I-125-LIGHT-FLAG; not shown: FLAG tag
B2: HVEM-Fc (Fc fusion)
chain: LPSCKEDEYPVGSECCPKCSPGYRVKEACGELTGTVCEPCPPGTYIAHLNGLSKCLQCQMCDPAMGLRASRNCSRTENAVCGCSPGHFCIVQDGDHCAACRAYATSSPGQRVQKGGTESQDTLCQNCPPGTFSPNGTLEECQHQTKCSWLVTKAGAGTSSS
modifications: I-125 radiolabel in the cell binding assays (Table 7); residues not stated
notes: also called I-125-HVEM-Fc; HVEM-Fc fusion protein; not shown: Fc

Assays:
[1] = biological target: T1, HVEM expressed on transfected 293 cells; test: radioligand binding to transfected cells, Scatchard analysis
hICOS-Fc = biological target: T2, hICOS-Fc; test: Biacore; hICOS-Fc amine coupled to a CM5 chip, HVEM-Fc injected at 2 ug/ml and 5 ul/min
PRO87299(ECD)-Fc = biological target: T3, PRO87299(ECD)-Fc; test: Biacore; HVEM-Fc amine coupled to a CM5 chip at 150 RU, PRO87299-Fc 17 nM injected at 5 ul/min for 1200 s, alone and mixed with 25 nM LIGHT
hCTLA4-Fc = biological target: T4, hCTLA4-Fc; test: Biacore; hCTLA4-Fc amine coupled to a CM5 chip, HVEM-Fc injected at 2 ug/ml and 5 ul/min
[2] = biological target: T5, PRO87299/LIGHT (both expressed on the same cells) (human, UniProt Q7Z6A9 31-289; O43557 1-240); test: radioligand binding to cells expressing PRO87299/LIGHT, Scatchard analysis
T5 construct: also called Expressed protein PRO87299/LIGHT

hCD28-Fc = biological target: T6, hCD28-Fc (human, UniProt P10747 19-152, limits assumed); test: Biacore; hCD28-Fc amine coupled to a CM5 chip, HVEM-Fc injected at 2 ug/ml and 5 ul/min
T6 construct: Bought (R&D systems); not shown: Fc; not described
T6 sequence (P10747 19-152 limits assumed): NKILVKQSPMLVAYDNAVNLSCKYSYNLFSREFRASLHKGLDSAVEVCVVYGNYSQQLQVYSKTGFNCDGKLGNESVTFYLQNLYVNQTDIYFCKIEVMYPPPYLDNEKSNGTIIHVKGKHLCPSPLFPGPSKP

hPD-1-Fc = biological target: T7, hPD-1-Fc (human, UniProt Q15116 25-167, limits assumed); test: Biacore; hPD-1-Fc amine coupled to a CM5 chip, HVEM-Fc injected at 2 ug/ml and 5 ul/min
T7 construct: Bought (R&D systems); not shown: Fc; not described
T7 sequence (Q15116 25-167 limits assumed): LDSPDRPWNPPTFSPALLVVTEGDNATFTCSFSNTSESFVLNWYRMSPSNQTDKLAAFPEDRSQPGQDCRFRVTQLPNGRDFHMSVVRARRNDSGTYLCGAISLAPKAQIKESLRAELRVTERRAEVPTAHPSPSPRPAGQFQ

PRO87299 on cells = biological target: T8, PRO87299 on cells (human, UniProt Q7Z6A9 31-289); test: radioligand binding to transfected cells, Scatchard analysis
T8 construct: Used both for transfected cells and for the native protein on human primary B and CD4+ T cells; also called PRO87299 transfected cells; 293 cells expressing PRO87299

[3] = biological target: T9, LIGHT expressed on transfected cells (Homo sapiens (Human), UniProt O43557 1-240); test: as above
T9 construct: also called Expressed protein LIGHT

| Binder | Kd [1] | binding result (hICOS-Fc) | binding result (PRO87299(ECD)-Fc) | binding result (hCTLA4-Fc) | Kd [2] | binding result (hCD28-Fc) | binding result (hPD-1-Fc) | Kd (PRO87299 on cells) | Kd [3] |
| --- | --- | --- | --- | --- | --- | --- | --- | --- | --- |
| B1 | 2.5 nM |  |  |  |  |  |  |  |  |
| B2 |  | no binding (tested: 2 ug/ml) | binds | no binding (tested: 2 ug/ml) | 0.5 nM | no binding (tested: 2 ug/ml) | no binding (tested: 2 ug/ml) | 5.5 nM | 7 nM |
